How the values were obtained:
Assay in all cases: cell-based or functional assay
[1] = biological target: OsJAZ^33-p53 (Oryza sativa; human) (UniProt P04637)
[2] = biological target: T1, GFP-OsJAZ^23 (Oryza sativa)
T1 sequence: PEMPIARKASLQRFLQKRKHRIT

[3] = biological target: T2, NLS-GFP-OsJAZ^33 (SV40; Oryza sativa)
T2 sequence: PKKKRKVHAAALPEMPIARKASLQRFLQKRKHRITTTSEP

[4] = biological target: T3, GFP-AtJAZ^FL (Arabidopsis thaliana) (UniProt Q9LMA8)
T3 sequence: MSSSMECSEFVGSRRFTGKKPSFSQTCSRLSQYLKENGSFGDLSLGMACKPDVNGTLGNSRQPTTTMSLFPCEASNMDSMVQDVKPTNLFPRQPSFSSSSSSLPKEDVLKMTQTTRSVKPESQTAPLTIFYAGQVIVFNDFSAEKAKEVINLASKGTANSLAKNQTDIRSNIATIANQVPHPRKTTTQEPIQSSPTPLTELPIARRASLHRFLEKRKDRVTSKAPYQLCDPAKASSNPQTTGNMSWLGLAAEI

B1: OsTIR1^F-box-OsCOI1B^LRR (receptor)
chain: MYPYDVPDYATYFPEEVVEHIFSFLPAQRDRNTVSLVCKVWYEIERLSRKHVTVPFCYAASPAHLLARFPRLESLAVKGKPRAAMYGLIPEDWGAYARPWVAELAAPLECLKALHLRRMVVTDDDLAALVRARGHMLQELKLDKCSGFSTDALRLVARSCRSLRTLFLEECSIADNGTEWLHDLAVNNPVLETLNFHMTELTVVPADLELLAKKCKSLISLKISDCDFSDLIGFFRMAASLQEFAGGAFIEQGELTKYGNVKFPSRLCSLGLTYMGTNEMPIIFPFSALLKKLDLQYTFLTTEDHCQLIAKCPNLLVLAVRNVIGDRGLGVVADTCKKLQRLRVERGDDDPGLQEEQGGVSQVGLTTVAVGCRELEYIAAYVSDITNGALESIGTFCKNLCDFRLVLLDREERITDLPLDNGVRALLRGCTKLRRFALYLRPGGLSDTGLGYIGQYSGIIQYMLLGNVGETDDGLIRFALGCENLRKLELRSCCFSEQALARAIRSMPSLRYVWVQGYKASKTGHDLMLMARPFWNIEFTPPSSENANRMREDGEPCVDSQAQILAYYSLAGKRSDCPRSVVPLYPA
Q: What does the source list for B1?
A: coronatine-dependent degradation, western blot quantification, H9 hESCs, 50 µM coronatine 1 day [1]: 90%; coronatine-dependent GFP degradation, flow cytometry, HEK-293T, pJAZ version 6-Os23 [2]: 90%; coronatine-induced GFP degradation, flow cytometry, HEK-293T, pJAZ version 7 [3]: > 95%; coronatine-induced degradation, flow cytometry, several cell types carrying pJAZ and pRAIDRS [3]: 90 to 99%; coronatine-induced GFP degradation, flow cytometry, HEK-293T, pJAZ version 6-AtFL [4]: 95%

— patent US20190316150A1
